# Paper doi:10.1101/2023.11.22.568272, “Sec7 regulatory domains scaffold autoinhibited and active conformations” (bioRxiv, 2023)
# Target: the molecule itself
# Assay: cryo-EM structure; single-particle cryoEM of purified full-length T. terrestris Sec7 with 2 mM fluorinated fos-choline 8; C2 symmetry for the dimer consensus map (5.3 Å), focused monomer map 3.7 Å, composite dimer model
protein,measurement,value
full-length Sec7 from Thielavia terrestris (natural protein) MEQKLISEEDLNSAVDHHHHHHRIPGLINSSLKFVVSSLDIIAAQAGRNKQLAELAEKALAAIKENDQQLPDPEVVFAPLQLATKSGTIPLTTTALDCIGKLISYSYFSAPSSSATQDGTEQTPLIERAIDTICDCFQGETTLVEIQLQIVKSLLAAVLNDKIIVHGAGLLKAVRQVYNIFLLSRSTANQQVAQGTLTQMVGTVFERVKTRLHMKEARANLGRLKASRSSLAVDRSDDQDSQAGKVDGEDATVETVSDATPSESVDKAGGGKLTLKDLEHRKSFDDSHMGDGPTMVSQVKPMKKASRSVSEQSLQESPQDETPESLDAEDEAYIRDAYLVFRSFCNLSTKILPPDQLYDLRGQPMRSKLISLHLIHTLLNNHITVFTSPLCTIRNTKNNEPTNFLQAIKYYLCLSITRNGASSVDRVFDICCEIFWLMLKYMRSSFKNEIEVFLNEIYLALLARRNAPLSQKLTFVGILKRLCEDPRALVELYLNYDCNQNVDNIFQTIVEDLSRFATASVPITPTQEQQYEESRSKSATAGEWQIKSVLPPPLSVALIATNHEADTELPKEYVMKRTALDSLVETLRSLVHWSQPGRPELNGASGDVQRRTSSDDLGDSIDPSMSETASRMEVPIAPATPVIDDDPDQLEKEKARKTAMTNAIKVFNFKPKHGIKLLIKEGFIPSDKPEDIARFLLREERLDKAQIGEYLGEGDQKNVDIMHAFVDMMDFSKKRFVDALREFLQAFRLPGEAQKIDRFMLKFAHRYVTGNPNAFANADTPYVLAYSVIMLNTDLHSSKVVKRMSKAEFIKNNRGINDNADLPDEYLIGIYDDIASNEIVLKSEREAAAAAGTLPAQSTGLAGLGQAFSNVGRDLQREAYVQQSEEISLRSEQLFRDLYRSQRKSATKGGVKFISATSFKHVGPMFDATWMSFFSTLSSLVQKTHNLDVNKLCLEGMKLATKIACLFDLSTPREAFISMLKNTANLNNPREMQAKNVEALKVLLDLAQTEGNYLKESWKDVLLCISQLDRLQLISGGVDESAVPDVSRARFVPPPRTETGESRKSTSSARRTRPRAHTGPQGVSLEIALESRSDEVIKSVDRIFTNTANLSRDAIIHFARALTEVSWDEIKVSGSNDSPRTYSLQKIVEISYYNMTRVRFEWSHIWDVLGEHFNRVGCHANTAIVFFALDSLRQLSMRFMEIEELAGFKFQKDFLKPFEHVMSNSSNVTVKDMVLRCLIQMIQARGENIRSGWRTMFGVFTVAAREPYESIVNLAYENVTQVYKTRFGVVISQGAFTDLIVCLTEFSKNMRFQKKSLQAMETLKSVIPTMLKTPECPLSQHKPTATTASGSESHSKKAAVQQTRTSVEEGFWFPVLFAFHDVLMTGEDLEVRSNALNYFFETLLRYGGDFPPEFWDILWRQQLYPIFMVLRSRPEMTNALNHEELSVWLSTTMIQALRNMITLFTHYFDALEYMLDRFLELLALCICQENDTIARIGSNCLQQLILQNVTKFTAEHWAKIVGAFCELFERTTAYQLFSATTINSTASLSPPPSGLELGGPLSPTSATAPVDGKSLKINGVETNGQTPGAEPANGDADGNGTAAAAADASAPAATPQPQQGPAQQLEEFKPNNPLQQQPVVVTAARRRFFNRIISRCVLQLLMIETVNELFSNDAVYAQIPSAELLRLMALLKKSFLFAKRFNADKDLRMRLWREGFMKQPPNLLKQESGSAATYVAILFRMFGDTAPDRRGSRADVEAALVPLCRDIIRGYTALDDESQHRNIVAWRPVVVDVLEGYAAFPRDAFAAHIRSFYPLVVELLGKDLGQDLRAALLLVLRRVGEVGLGIEGMGSGGAAAAAAAGAAAASSGQGNGNGAAAAAADSERRSSVLSVPSGPRHTPSMDSLNDDPSRQVMGKAEQKLISEEDLNSAVDHHHHHH,stoichiometry N,2
